According to patent publication US20050089840A1 (FRONTIER BIOTECHNOLOGIES, published 2005):

Tests used:
[1] = target: HIV-1 IIIB viral envelope protein gp41 (HIV-1 IIIB) (UniProt P04578); test: cell-based or functional assay
[2] = target: HIV-1 IIIB viral envelope protein gp41 (HIV-1 IIIB, UniProt P04578 512-856); test: cell-based or functional assay

Molecule | IC50 (nM), 50% viral inhibition drug concentration, HIV-1 IIIB in fresh human PBMC cultures [1] [nM] | fold increase of the antiviral IC50 against FB006 [1] [fold] | IC50 (nM), 50% viral inhibition drug concentration, HIV-1 IIIB in fresh human PBMC cultures [2] [nM]
FB006M conjugated with human serum albumin (HSA) (from UniProt P02768 25-609) | 3.94 | 2.8 | –
Ac-WEEWDREINNYTKLIHELIEESQNQQEKNEQELL-NH2 [FB006] | – | – | 1.41
Ac-SLEQIWNNMTWEEWDREINNYTELIHELIEESQNQQEKNEQELL-NH2 [FB005] | – | – | 0.93
